Values of other authors in US20170319567A1, “Use of CCR3-Inhibitors” (Alkahest, Inc., priority 2013, published 2017).

Test system: eosinophils
Conditions: EoE patients, anti IL-5 therapy

B1: Mepolizumab: anti IL-5 antibody (antibody, chains of the INN, looked up, V domains shown)
VH: QVTLRESGPALVKPTQTLTLTCTVSGFSLTSYSVHWVRQPPGKGLEWLGVIWASGGTDYNSALMSRLSISKDTSRNQVVLTMTNMDPVDTATYYCARDPPSSLLRLDYWGRGTPVTVSS
VL: DIVMTQSPDSLAVSLGERATINCKSSQSLLNSGNQKNYLAWYQQKPGQPPKLLIYGASTRESGVPDRFSGSGSGTDFTLTISSLQAEDVAVYYCQNVHSFPFTFGGGTKLEIK
  lowering of peripheral eosinophils: 5 fold
  reduction in biopsy eosinophils: 2 fold
